Measured values: patent US20140235820A1, “METHODS AND COMPOSITIONS FOR MODULATING THE Wnt PATHWAY” (Genentech, Inc., priority 2010, published 2014)

T1: human LRP6 construct E1 (amino acids A20-D325) (human, UniProt O75581 20-325)
T1 construct: range 20-325; In the Fab crystal E1 arose from E1E2 degraded beyond Arg 335; residues Ala20 to Lys324 were traced; also called LRP6 E1; E1 domain
T1 sequence (looked up): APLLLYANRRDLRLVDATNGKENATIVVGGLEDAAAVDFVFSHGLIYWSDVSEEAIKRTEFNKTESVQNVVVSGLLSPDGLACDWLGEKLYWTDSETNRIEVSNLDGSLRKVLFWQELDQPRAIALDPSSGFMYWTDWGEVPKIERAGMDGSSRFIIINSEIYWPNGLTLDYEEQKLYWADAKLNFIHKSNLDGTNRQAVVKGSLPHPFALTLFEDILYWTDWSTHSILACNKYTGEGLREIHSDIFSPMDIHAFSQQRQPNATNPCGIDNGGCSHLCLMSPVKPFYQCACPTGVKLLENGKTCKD

T2: human LRP6 construct E4 (T933-Q1253) (human, UniProt O75581 933-1253, biotinylated for biolayer interferometry)
T2 construct: range 933-1253; also called LRP6 E4
T2 sequence (looked up): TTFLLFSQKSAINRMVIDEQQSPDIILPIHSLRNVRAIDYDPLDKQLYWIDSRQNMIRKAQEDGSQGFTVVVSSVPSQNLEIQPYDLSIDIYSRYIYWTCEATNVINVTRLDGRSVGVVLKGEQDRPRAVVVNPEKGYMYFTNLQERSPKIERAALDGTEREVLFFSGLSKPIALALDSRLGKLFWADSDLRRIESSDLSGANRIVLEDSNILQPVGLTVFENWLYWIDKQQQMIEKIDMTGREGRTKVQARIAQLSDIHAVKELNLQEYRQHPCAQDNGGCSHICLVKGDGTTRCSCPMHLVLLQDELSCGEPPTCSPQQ

T3: human LRP6 construct E3E4 (amino acids E631-Q1253) (human, UniProt O75581 631-1253, biotinylated for biolayer interferometry)
T3 construct: range 631-1253; also called LRP6 E3E4
T3 sequence (looked up): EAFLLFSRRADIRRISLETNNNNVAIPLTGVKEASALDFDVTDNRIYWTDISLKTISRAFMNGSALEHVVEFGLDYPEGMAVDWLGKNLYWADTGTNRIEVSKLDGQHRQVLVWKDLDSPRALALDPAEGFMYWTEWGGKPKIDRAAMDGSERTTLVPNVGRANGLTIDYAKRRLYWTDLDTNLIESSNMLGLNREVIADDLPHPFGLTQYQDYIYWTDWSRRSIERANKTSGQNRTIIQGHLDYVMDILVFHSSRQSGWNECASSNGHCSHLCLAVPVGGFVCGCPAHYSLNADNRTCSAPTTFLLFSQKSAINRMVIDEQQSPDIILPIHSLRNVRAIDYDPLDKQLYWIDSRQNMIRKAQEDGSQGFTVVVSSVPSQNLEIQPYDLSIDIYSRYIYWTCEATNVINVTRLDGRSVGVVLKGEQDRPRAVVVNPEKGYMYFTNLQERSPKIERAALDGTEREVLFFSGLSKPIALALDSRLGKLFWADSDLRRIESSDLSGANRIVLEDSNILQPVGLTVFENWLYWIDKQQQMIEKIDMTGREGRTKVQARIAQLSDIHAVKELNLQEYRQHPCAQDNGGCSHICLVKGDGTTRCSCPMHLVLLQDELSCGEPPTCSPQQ

T4: human LRP6 construct E1E2 (amino acids A20-E631) (human, UniProt O75581 20-631, biotinylated for biolayer interferometry)
T4 construct: range 20-631; also called LRP6 E1E2
T4 sequence (looked up): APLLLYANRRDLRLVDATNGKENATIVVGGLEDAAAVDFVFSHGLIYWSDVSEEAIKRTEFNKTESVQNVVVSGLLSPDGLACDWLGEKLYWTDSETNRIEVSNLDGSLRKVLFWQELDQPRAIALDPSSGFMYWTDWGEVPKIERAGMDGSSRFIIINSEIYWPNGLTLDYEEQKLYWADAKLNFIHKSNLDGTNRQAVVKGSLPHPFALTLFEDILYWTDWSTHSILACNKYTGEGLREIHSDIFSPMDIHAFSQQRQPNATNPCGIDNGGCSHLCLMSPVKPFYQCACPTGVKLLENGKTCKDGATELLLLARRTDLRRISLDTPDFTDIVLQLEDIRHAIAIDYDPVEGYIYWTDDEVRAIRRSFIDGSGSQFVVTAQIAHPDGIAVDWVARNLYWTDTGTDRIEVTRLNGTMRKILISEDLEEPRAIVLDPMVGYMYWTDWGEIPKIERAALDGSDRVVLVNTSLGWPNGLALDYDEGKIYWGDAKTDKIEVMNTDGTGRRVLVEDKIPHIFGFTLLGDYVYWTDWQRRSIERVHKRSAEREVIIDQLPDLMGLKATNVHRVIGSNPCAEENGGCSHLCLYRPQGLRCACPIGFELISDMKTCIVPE

T5: LRP6 E1E2 Arg141Met (human, UniProt O75581 20-631)
T5 construct: range 20-631; also called LRP6 E1E2 R141M
T5 sequence (looked up): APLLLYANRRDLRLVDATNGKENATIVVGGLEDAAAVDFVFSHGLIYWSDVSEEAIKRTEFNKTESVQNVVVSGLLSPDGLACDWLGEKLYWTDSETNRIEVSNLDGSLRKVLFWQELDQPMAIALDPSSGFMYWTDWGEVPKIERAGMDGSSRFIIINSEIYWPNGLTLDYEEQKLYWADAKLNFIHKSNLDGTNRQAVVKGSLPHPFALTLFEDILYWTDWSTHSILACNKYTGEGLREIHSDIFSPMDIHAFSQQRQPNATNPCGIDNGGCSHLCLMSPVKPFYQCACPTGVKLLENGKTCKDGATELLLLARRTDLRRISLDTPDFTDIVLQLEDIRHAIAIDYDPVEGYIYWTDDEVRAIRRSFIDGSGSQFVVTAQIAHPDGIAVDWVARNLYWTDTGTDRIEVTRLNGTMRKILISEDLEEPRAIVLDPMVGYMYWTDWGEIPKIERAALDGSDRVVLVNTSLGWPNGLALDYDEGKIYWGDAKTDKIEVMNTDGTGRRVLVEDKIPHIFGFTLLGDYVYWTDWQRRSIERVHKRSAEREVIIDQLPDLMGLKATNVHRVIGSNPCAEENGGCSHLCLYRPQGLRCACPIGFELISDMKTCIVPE

T6: LRP6 E1E2 Asn185Ser (human, UniProt O75581 20-631)
T6 construct: range 20-631; also called LRP6 E1E2 N185S (analogue of LRP5 BMD mutation Asn198Ser)
T6 sequence (looked up): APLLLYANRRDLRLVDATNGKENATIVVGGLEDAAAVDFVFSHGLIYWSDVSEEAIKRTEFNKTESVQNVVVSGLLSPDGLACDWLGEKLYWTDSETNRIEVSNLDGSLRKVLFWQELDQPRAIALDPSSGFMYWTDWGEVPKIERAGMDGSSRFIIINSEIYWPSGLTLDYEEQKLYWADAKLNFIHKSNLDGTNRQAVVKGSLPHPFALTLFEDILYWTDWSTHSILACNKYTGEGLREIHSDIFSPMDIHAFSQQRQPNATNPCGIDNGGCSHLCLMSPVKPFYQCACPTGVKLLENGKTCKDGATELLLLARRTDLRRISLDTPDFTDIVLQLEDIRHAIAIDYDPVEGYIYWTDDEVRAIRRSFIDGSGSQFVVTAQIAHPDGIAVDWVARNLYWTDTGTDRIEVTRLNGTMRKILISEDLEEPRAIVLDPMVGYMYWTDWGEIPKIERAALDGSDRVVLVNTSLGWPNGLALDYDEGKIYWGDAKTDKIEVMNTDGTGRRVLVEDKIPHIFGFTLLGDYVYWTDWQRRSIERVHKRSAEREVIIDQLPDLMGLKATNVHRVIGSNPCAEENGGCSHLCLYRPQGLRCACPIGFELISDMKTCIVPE


What was measured:
[1] = target: T1, human LRP6 construct E1 (amino acids …); assay: synthetic peptides, competition IC50 (FIG. 17A)
[2] = target: T2, human LRP6 construct E4 (T933-Q1253); assay: BLI, biotinylated LRP6 on streptavidin tips
Experimental: (§1) Binding kinetics were measured by biolayer interferometry using an Octet Red instrument (ForteBio) as previously described (11). Streptavidin (SA) biosensors were loaded with biotinylated hLRP6 in 50 mMTris, pH 8, 300 mM NaCl, 5% (v/v) glycerol, and 0.05% (w/v) Triton X-100. The loaded biosensors were washed in the same buffer before carrying out association and dissociation measurements for the indicated times. The Kd of each interaction was determined using steady state-analysis through the Octet Red software v6.3. Each reported value represents an average of three or more experiments at different concentrations, with a fitted experimental curve for which the square of the correlation coefficient (R²) is above 0.96.
Purified receptors contained individual β-propeller-EGF-like units (E1, E2, or E4), two β-propellers (E1E2 or E3E4), or four β-propellers (E1E4))—as follows: […]

[3] = target: T3, human LRP6 construct E3E4 (amino acids …); assay: BLI (Octet Red), biotinylated LRP6 on streptavidin tips, steady state
Experimental: as §1

[4] = target: T4, human LRP6 construct E1E2 (amino acids …); assay: as above
Experimental: as §1

LRP6 E1E2 Arg141Met = target: T5, LRP6 E1E2 Arg141Met; assay: BLI steady-state affinity
Experimental: as §1

LRP6 E1E2 Asn185Ser = target: T6, LRP6 E1E2 Asn185Ser; assay: BLI steady-state affinity
Experimental: as §1

Row | Binder | binding result [1] | binding result [2] | Kd [3] [nM] | Kd [4] [nM] | fold loss in affinity against wild-type LRP6 E1E2 (LRP6 E1E2 Arg141Met) [fold] | fold loss in affinity against wild-type LRP6 E1E2 (LRP6 E1E2 Asn185Ser) [fold]
1 | AIKN [Dkk1 peptide lacking three residues from the N-terminus] | no binding |  |  |  |  | 
2 | NSNA [Dkk1 peptide lacking three residues from the C-terminus] | no binding |  |  |  |  | 
3 | Dkk1 (wild type) (ligand, human, UniProt O94907 32-266, looked up, also called Dickkopf 1; human Dkk1) TLNSVLNSNAIKNLPPPLGGAAGHPGSAVSAAPGILYPGGNKYQTIDNYQPYPCAEDEECGTDEYCASPTRGGDAGVQICLACRKRRKRCMRHAMCCPGNYCKNGICVSSDQNHFRGEIEETITESFGNDHSTLDGYSRRTTLSSKMYHTKGQEGSVCLRSSDCASGLCCARHFWSKICKPVLKEGQVCTKHRRKGSHGLEIFQRCYCGEGLSCRIQKDHHQASNSSRLHTCQRH |  | no binding | 51 | 22 | 29 | 183
